Assay: soluble on expression in E. coli; label from the status in PepcDB or PDB records
In the case of “MSDYAESYVSDCEVDPEELKNQSLFDKPRGVPRWLGKPHNSVKERLHNSVKDRTFIQKTVSSSEPLSRNAMDRIEASLTDNLNLDVVYSLNKKNRWQDAKTTFLLAGAPENVNAEVVEKNGLAQFGFIYPEKSTFAVHSRVLNKENKQGEFEIRSAITSSARGQDYSNFLPNTREFSKKANAKVMTLRSEEVDEDSKRQPTVSYNIYKTHRSQDVVGKEMFKAKVVSKSRRHRQNKKVDMENYDDLDEEFEDDEDEVVDSHRPTGVFDLAAFKVRTQSKQAHPKNRKDSELSYDMVDYDELETGSEYSQQFNVQEYLNQEGYTFIQADVTFVKLTEPFEDQINQLRLEGDLRVKDLQKNQYLIDISKRCQPNGTTQDGETTAVIVLTHLKHKTYNMIFNSTIGADPIRRNGENLRKIVSSAPTVLEVITKISGDVAEDKQLISRIKTSEKFYGRPSTSVDWNDLSLQRATCPNQYDNATWANSEELSVVGGKLEWDDLVAMVKKENNLVTCYSSDDFCGFCNRKKKSFELFLIKSSSETKIKCTECLRNEFYREFIARRLPIDLQTETADEMEYLPIFIPLTLLNLYIRTVAETIYKDLGATGDFEKCPSCKSTIFFEEPGNENKTQNRSCPCGYSWCRDCKGVPHWPMNCENYAEWEKKWHLRYAMMNAQGTGTVTLLQFTCHCKTVYYCLLPTKRVNCPGCRESVNLETMNTMYRQFYYSYPPRYRKWEKQYHEENKDTDRHPYQPLAKVCWEIDKIPAIKASVIETCGAARDVRFDLKFRNRVIKQEQVLIKKSILTSEVLENILGTIPYLVENVTAWMHMSNHQDKNLKSILESMIADRKDLVYYLESENEIEIEKCVKILRAKIDSVVSIVEKNMKNC”, the “soluble on expression in E. coli” value is reported as “not soluble”.
With “MVRNLVIDITKKPTQNIPPTNEIIEEAITELNVDELLDRLFEKDESGEVITPSRIAKMLEEKAFEIYKEYEKQVREAYLSAGYSREKLEQSFQQARFSRGGKAFEIIFTKLLNKFGIRYEHDRVIKIYDYITEGEKPAFIIPSVRTFLNDPSSAILITVKRKVRERWREAVGEAQILRNKFGDEINFWFVGFDEEFTIYSAIAMLDNGIDRVYVIDGRYDSLIEEIKRISDPNFNEDKYIQKIRRFSDIFDDIIQFLNKHGNKKRGKQLTLV” the “soluble on expression in E. coli” value was “soluble”.
In the case of “SVSPLKTRCCSPSSQQQASEAREIEQPSTVWELDFYSRPVYGKDNKRIWELIVVDESFLLCHVESVPNDMINSAELRKRVERLLEQVTVKPKVVKFSRMPMFNMISLALKDLGFEVKPSRRTYRLYHVLRDREANIYSKMPGYRSENTLSTSYLYSTERLPDALRGEKFAFCTADYSFLYELQSSDTIPYCDIFNTGDSILLEKELPGIIVYSERADSLASWTAGAEVSFIKFREEELELVLECGINSHYRLAKIAEDHRLVEEAKTFEQMKWHMKGFHFYAIQSLKETSGTSHIKGLWLLNDFMEQ”, the “soluble on expression in E. coli” value is reported as “soluble”.
For “MVIRRTYMARDNTYYLDEALYISAQAPTGIELSFIGGGGPGSGGWGLSDGYPRGTSPTKNDIARVISTRRVLTEEFQIIEKDYSDKYAHETNQLPETINALKAQIKAEASSTNGAASPFVTEQQILSSRISQIRDGYLQILPDANNYFGVPAFYKRGDSMMSRFLDPGFFAATTGQELGVEWATRLQKSWEGTYRLHLEAQKHQALADELRALASQVDQEELSQQPLDLLQVIARRTAQIHTERQIHFDCLPNVLQHELGQTVIDDTLTLVQTFSTYLATAAALVQAKQSQIPPYQDQNPRINSPLSKPQLEGLLHLVDEQRLRRAGPRWQEYHLALALTESIRFLGVYAGATQNLMQRAAEVENLQAQLAAQEEAARQQAEAERLAAEAERQRQEALRRSVSYINEARLAVSTPAVIPIGATTFAVAEAAYSALAESIAAALTRLVATTVPSVAVGTLAMAWPSTLGNSERQYLISTPLDSLSPAGGPDLAALAASSTSIDLPYLLAGVENENELDLYVVPSGKPVAVRAATFDSERQVYSLALDNPQRILTWTPASAPGGDEGNSTSLPLVPPGTVVYTGSSLNPVVTEQEGYPALDLLDQERLIITFPMDSGLPPILVVFKSPRYEAGTSTGHGAQVSDTWRKEAASLEGAPIPAQIAELLKSREFRNFDAFRRQFWKAVANDPELSKQFDEMSLSRMRKNGYSPIVDFPDSHLSQKTFILHHVIPISEGGGVYDMDNIRIVTPLSHNSIHYGTKPLEHHHHHH”, the “soluble on expression in E. coli” value was “not soluble”.
In the case of “MGSDKIHHHHHHMDVLTPTPLTYPYEASRPKMALIAEGGGQRGIFTAGVLDAWLDNDFDPFDLFIGTSAGSQNLTSFLSRQKGYAKRLIRGLSRHKRFYQLGRGLVGGNVVDLDWYFDKTTQGSFALDFTAAAKSLGQRELLITATNSRDRQGYFLRPNGDNDHWRELLKASSALPFLYKQGVKLAPWLTASAANQVHTNYDYPQADFYLDGGLAAPLPVREAYRRGARKIVVIRTVNADFHAQSAWVHKLKSWICVSGYCPKTIDYLAQHEQAYEQELAFIANPPDDVEIIQIFADDNLQSKLLGSTDMDLRHDYQTGITAGNAFLHTQKAFYSTHSLHAQPLLESLTIMQSMTA”, the “soluble on expression in E. coli” value is reported as “not soluble”.
For “GPQKRCLFVCRHGERMDVVFGKYWLSQCFDAKGRYIRTNLNMPHSLPQRSGGFRDYEKDAPITVFGCMQARLVGEALLESNTVIDHVYCSPSLRCVQTAHNILKGLQQDNHLKIRVEPGLFEWTKWVAGSTLPAWIPPSELAAANLSVDTTYRPHIPVSKLAISESYDTYINRSFQVTKEIISECKSKGNNILIVAHASSLEACTCQLQGLSPQNSKDFVQMVRKIPYLGFCSCEELGETGIWQLTDPPILPLTHGPTGGFNWRETLLQE”, the “soluble on expression in E. coli” value was “soluble”.
For “MTEHLDVVIVGAGISGVSAAWHLQDRCPTKSYAILEKRESMGGTWDLFRYPGIRSDSDMYTLGFRFRPWTGRQAIADGKPILEYVKSTAAMYGIDRHIRFHHKVISADWSTAENRWTVHIQSHGTLSALTCEFLFLCSGYYNYDEGYSPRFAGSEDFVGPIIHPQHWPEDLDYDAKNIVVIGSGATAVTLVPALADSGAKHVTMLQRSPTYIVSQPDRDGIAEKLNRWLPETMAYTAVRWKNVLRQAAVYSACQKWPRRMRKMFLSLIQRQLPEGYDVRKHFGPHYNPWDQRLCLVPNGDLFRAIRHGKVEVVTDTIERFTATGIRLNSGRELPADIIITATGLNLQLFGGATATIDGQQVDITTTMAYKGMMLSGIPNMAYTVGYTNASWTLKADLVSEFVCRLLNYMDDNGFDTVVVERPGSDVEERPFMEFTPGYVLRSLDELPKQGSRTPWRLNQNYLRDIRLIRRGKIDDEGLRFAKRPAPVGV”, the “soluble on expression in E. coli” value was “soluble”.
For “MGSDKIHHHHHHMKIERLDKYIWKIPKEGDMKVDAIIFTDAESVNDPQFREAMKQLMNVATLPGIVKYALAMPDIHWGYGFPIGGVAAFDVKEGIISPGGVGFDINCGVRLMKTDLTYEDVKDRMRSLVEAIYEFVPAGVGSTGDIVLGKKGLRKVLVEGAEWAVKSGYGLEEDLERIEDGGKIHPADPSYVSEEAFERGSDELGTLGAGNHFVEVQMVQEIYDEELAEFFGLEIGTITVMIHSGSRGFGHQVATDYIRLMRDNLKEHNKNLPDKQLINAPFEHPLGQAYYSAMNCAANYAFANREILGHLVRKAFWKVFGRDTRVDLIYDVAHNIAKVEEYEVDGKRRKLVVHRKGATRSLGPGSEKVPSIYREVGQPVIIPGDMGTASYLLVGTKKAEEKTFGSTAHGAGRVLGRSAALKKLDYREVLDELAEKNIVVMSKSKKTLVEEAPEVYKDVDRVVQIVHEIGISRKVARMIPLGVVKG”, the “soluble on expression in E. coli” value was “not soluble”.
For “MERVTVRMARSDRRTPWGFGVTEAPDGAVLIVNVIGGSLADRAGLRNGDVVDRLEDLDNLDINAVDRLLVTAHEKIELIVTRQPSGAATRIWRPEVTENTGPGQDQTPYRVNLQHSSDTRPPQGFNNSALPFETDQRVKHMQYNSPLGIYSDKSAAEQYVQQTQGLGDNSGARAAAQRQDEPAYLRSETLRLLKEQEHGSAGGAGTTLSNHPNPSGLPVCFMCTRPILGVMARAAGKNLHGDCLSCATCGNSLRNVGHHFIEDKFYCDIHGTQRKHGGRPGMDPNIFVKSSPTAAQPVHIQDSPRAAYHPQVNTARPVSVSPAPSAGSKTVTTHYHTPKTQGILSPGQRGVPTAAFGADLSKSVTYGGGVGPGGTHYDSNRLSPAPSQYSTQSRNQSQQHYQQHVVQAPPPVPSNPPPSNEQQSQSRVQNLPDSVRSAVSPRRSGKSPRQWPPPAMPTTNRYWQIDPADALKKEKVNYGEDLVALIKEVEQSKEKEPKVKKEPKKGTRGARRASNISKEQVQQAFEEQRKRTERKEIKKLEKEIKPKPELKVEVPVEPLVVPTSKPLEEPCPEALPPPKINDGIHWTVIHSPVLRSPSPAKVTSEAAIPESNGVVKPIPSYASQPIGISKTSTPQPFRPGSQVERPHYSSVGLKDVHAPVPLPRSPQHSPQPVQSYIVRSSDANVTTSTNLQTTVTRQYTENDNKSQFLQQPHPDTIDSSTSPIPTIRLNRHTKPEPSTPLSVPTVSINDIATSPIKITEPSRPWRASVSNSATSPIKIHESRVQPVDESRGLHRHEEKAQIETSTIKIHEPSSPPPSVHKFGAVNTRAAPAPVQFMQTPRIAVKIHEPTGPSPTPPSTPSHPIKRDPKHFKKVDFSKTSPTVIPEWKDSADIVDESDILTECSREDDSISFLKAATYDGDESEMIDNNIDNKSDITSTFDIEEEEVDVVQDRERIRVVGRKGGEGGEAEKQWRQRAMELLDDDAQTERDLRIVAALNERLQGLREMEDDDRVRAIECIARHQSELEQTQTQLSTLLESAIVYLQNLRPELELTEPIDNDAKSLETVKFEPTRAEQRVNEIRKKVLEDLEHLPILGDGMDSVPPPPPERKVFPFQSYQPIAPQFPVPAAESPVTQSLHDVLDEFYSLRKPTPTQNVAQSSDTTAEDSRNFLASRLGQVMIDENKKAGGSNGSSQHHNQQGSSYTKTSFERTTTETRPQQNTGAPRAGDFRGTGHLTTTTTTQQNGGRAPFCESCKQQIRGAFVLATGKSWCPEHFVCANSSCRRRLLECGFVEEDGQKFCESCFEQHIAPRCNKCSKPIISDCLNALQKKWHPTCFTCAHCQKPFGNSAFYLEQGLPYCEQDWNALFTTKCVSCRYPIEAGDRWVEALGNAFHSNCFTCARCNHNLEGESFFAKNGQPFCRLHA”, the “soluble on expression in E. coli” value was “not soluble”.
In the case of “MGHDTIAKFLLTSGSTGNPKAVINTQRMICANQVMIREAMAFLKDEPPVIVDWLPWNHTFGGNHNIGLTLFNGGSMYIDDGKPTPAGIASTIRNLREIAPTVYFNVPKGYESLLPVLREDQQLRKLFFSRLHAMFFSGASLAAHVWNGLDEVAVAETGARVPMLTGLGATETAPFFMSVTPQTSRSGHVGLPVPGLEHHHHHH”, the “soluble on expression in E. coli” value is reported as “not soluble”.
For “MSLKSLKAKFRKSDTNEWNKNDDRLLQAVENGDAEKVASLLGKKGASATKHDSEGKTAFHLAAAKGHVECLRVMITHGVDVTAQDTTGHSALHLAAKNSHHECIRRLLQSKCPAESVDSSGKTALHYAAAQGCLQAVQILCEHKSPINLKDLDGNIPLLLAVQNGHSEICHFLLDHGADVNSRNKSGRTALMLACEIGSSNAVEALIKKGADLNLVDSLGYNALHYSKLSENAGIQSLLMSKISQDADLKTEGHHHHHH”, the “soluble on expression in E. coli” value was “soluble”.
In the case of “MGSLGFLAGGVMPLEQLKQELSEVKGVFGVNLFRPQTDAPKPSDIDELAGLLSSAFRQFGLDEPTVPTPDLSNGWEAKFEAVLAAKPAVFSCTFGIFSAEEFARIKATGIEAWVTVTNPEDALAAQKAGANALVVQGPEAGGHRSTWSIEVEPDERDLKTLLAAVKQAGVYLPLIAAGGLSTSADVAAILEAGASAASCGSAFLLSDEAGTSSLNREILDAAPALGLESVSSRAFSGRYARGVETRFTRSNEGLPPLYPYLNPMITSLRKVAGSAGNWDYAYCLVGVGLESIAKGSAKQILESLTPSALEHHHHHH”, the “soluble on expression in E. coli” value is reported as “not soluble”.
In the case of “MNKAKPKVVWASVYEGSAYIAPKDSYVDNMIKMAGGINACASIDSNEGRVSIEQLHEVAKDADIFVYSSSSDYAPNLDSIKSSAPVLADLDVVKNGNLWVFAPDYYQSVDKTDELIVDLVEMFHPGTTGEKIKHYINYDKLEHHHHHH”, the “soluble on expression in E. coli” value is reported as “soluble”.
